The record followed here is patent US20220298475A1.

Assay [1] deals with LCMV Gp61-80 peptide … presented by MHC-II of dendritic cells (lymphocytic choriomeningitis virus (LCMV)). Description: cell-based or functional assay.
Assay [2] addresses SIINFEKL N4 peptide (OVA257-264) presented on MHC-I H-2Kb of dendritic cells (mouse). As to the kind of experiment: cell-based or functional assay.

Chain of LCMV Gp61-80 peptide … presented by MHC-II of dendritic cells (lymphocytic choriomeningitis virus (LCMV)) (P07399 61-80): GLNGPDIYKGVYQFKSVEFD

On to “TCR of OT-II CD4+ T cells, specific for the OVA323-339 peptide”, for which the percentage of OT-II CD4+ T cells biotinylated by peptide-pulsed DC-FT in assay [1] was 1.68%.

For the substance “transgenic T cell receptor (TCR) of OT-I CD8+ T cells, specific for the SIINFEKL N4 of ovalbumin presented on MHC I”, in assay [2], the signal-to-background ratio of biotin labeling on OT-I CD8+ cells (iDC-FT pulsed with 10 nM peptide, flow cytometry) (ratio (signal:background)) is 10; the signal-to-background ratio of biotin labeling on OT-I CD8+ cells (iDC-FT pulsed with 100 nM peptide, flow cytometry) (ratio (signal:background)) was determined as 66; the signal/background ratio of biotinylated OT-I CD8+ T cells, DC-FT made by Method 1 (background: DC-enzyme primed with LCMV GP33-41) is 592; the signal/background ratio of biotinylated OT-I CD8+ T cells, DC-NHS-FT made by Method 2 (background: DC-enzyme primed with LCMV GP33-41) was 9.2. In assay [2], the streptavidin-APC+ OT-I CD8+ cells, DC-FT made by Method 1 came to 77% and the streptavidin-APC+ OT-I CD8+ cells, DC-NHS-FT made by Method 2 is 16%.
